“Also recorded” adds a separate entry of the source. Non-standard residues stand in square brackets, D forms with d. Residues, ends and D or L forms follow the SMILES beside them.
Assays:
[1] = tested on: Human aortic wall cocultures; experiment: LDL plus peptide in vitro in human aortic wall cocultures, monocyte chemotactic activity (Example 2); format: cell-based; conditions: control LDL 250 μg/ml plus varying amounts of peptide
Method: Human aortic wall cocultures were incubated with medium alone (LDL, NO CELLS or CELLS, NO LDL, see FIG. 9), control LDL from normal subjects at 250 μg/ml (LDL) and LDL plus control HDL from normal subjects at 350 μg/ml (+HDL). Other cocultures were incubated With the control LDL together with varying amounts (micrograms shown on the abscissa) of either D-2F, or L-2F (third panel from the left, 2F) or D-37-pA or L-37pA (last panel on the right, 37pA). The data represent mean±SD of values obtained from quadruplicate cocultures.

[2] = tested on: red blood cells of LDL receptor deficient mice; experiment: In vitro red cell lysis after gavage of D peptides; format: in vivo, mouse; conditions: 100 μg by gavage, blood 17 and 48 hrs later
Method: Red cells were separated by centrifugation, were diluted to 10% hematocrit with PBS and incubated at 37° C. with gentle mixing. Aliquots were removed at time points t=0, 2, 6 and 18 hrs, cell pellets spun down and the optical density due to the released hemoglobin determined.

[3] = Antibody formation against D-2F (other studies); format: in vivo
[4] = tested on: human artery wall cell cocultures; experiment: Lipoproteins from mice given peptide by gavage tested in human artery wall cell cocultures (monocyte chemotactic activity); conditions: for resistance of circulating mouse LDL to oxidation (monocyte chemotactic activity): 100 μg by gavage, LDL receptor-deficient mice, blood 17 hrs later; for monocyte chemotaxis induced by LDL from mice given 2F by gavage: D versus L form by gavage
Method: Groups of LDL receptor-deficient mice (n=3) were administered the D-peptides or the saline vehicle by gavage. […] Blood was collected from retroorbital sinus under mild anesthesia 17 hrs later. LDL was isolated from plasma by FPLC. Cocultures of artery wall cells were incubated with medium alone (NO ADDITION), control LDL from normal subjects (LDL), LDL plus control HDL from normal subjects (+HDL). […] The cocultures were incubated for 4 hrs at 37° C. in the presence of 10% LPDS. The supernatants were then discarded, the cocultures were washed and incubated with culture medium without serum or LPDS for an additional 4 hrs. This conditioned medium was collected and analyzed for monocyte chemotactic activity. The values are mean±SD of quadruplicate cocultures.
Blood was collect after 6 hrs, plasma HDL and LDL were isolated by gel filtration (FPLC) and examined in the cocultures. […] Human LDL at 200 μg protein/ml was added to human artery wall cell cocultures together with human HDL (hHDL) at 350 μg protein/ml or mouse HDL (mHDL) at 100 μg cholesterol/ml taken from mice that received saline (Saline Rx) or L-4F (L-4F Rx) or D-4F (D-4F Rx) and monocyte chemotactic activity was determined as described herein. […] On the right, mouse LDL (mLDL) was isolated from mice receiving saline (Saline Rx) or L-4F (L4F Rx) or D-4F (D-4F Rx) and was added at 100 μg cholesterol/ml to the artery wall cell cocultures without HDL and monocyte chemotactic activity determined. Values are mean±SD) for four wells in two independent experiments.
Either saline or 2F synthesized from D amino acids or from L amino acids was instilled in the stomachs of mice by gavage (instillation in the stomach by tube). After gavage the mice were bled and their LDL isolated and added to the human artery wall cell cocultures.
The animals were bled 1.5, 3 or 6 hours later and their HDL, LDL, and VLDL/IDL isolated.
Human aortic endothelial and smooth muscle cells were isolated and cultured as previously described (Id.). Cellular oxidation of LDL in the presence and absence of HDL was determined as described (Id.). Human blood monocytes were isolated after obtaining informed consent and monocyte chemotaxis was determined as described previously^5.

[5] = tested on: C57BL/6J mice fed an atherogenic diet; experiment: Aortic lesion formation, daily intraperitoneal injection for 16 weeks, atherogenic diet; format: in vivo, mouse; conditions: 5F 20 μg or MoAI 50 μg daily i.p.
Method: The livers were removed and weighed.
Histological evaluations were performed according to the method of Paigen et al. (Paigen et al. (1990) Arteriosclerosis 10: 316–323) with some modifications. Briefly, hearts were fixed for at least one week in the phosphate-buffered formaldehyde solution. After removing the lower ⅔ of the hearts, the remaining tissue was frozen in OCT medium (Tissue-Tek, Miles Inc., Elkhart, Ind.) and sectioned in a cryostat at −20° C. Alternate 20 μm sections were saved on slides, and observed for the beginning of the aortic root. Sections were then collected for an additional 600 μm, or until the aortic cross-section was rounded and the valve cusps were no longer evident. Slides were stained with Oil Red O, and counterstained with hematoxylin. Stained lesion cross-sectional areas were measured in consecutive slides 80 μm apart by image analysis (SigmaScan Pro, SPSS Scientific, Chicago, Ill.), and the average lesion area was determined for each aortic sinus over the 400 μm length (five slides) providing the greatest mean lesion area.

[6] = Plasma cholesterol lipoprotein profiles (CLiP); format: in vivo, mouse; conditions: 16 weeks atherogenic diet, daily i.p.
Method: Plasma cholesterol lipoprotein profiles were measured using our recently-developed CLiP method (Garber et al. (2000) J. Lipid Res. 41:1020–1026). Briefly, 5 to 10 μl of plasma were analyzed using a single Superose 6 (Pharmacia, Piscataway N.J.) column. Immediately following the column, cholesterol reagent was introduced through a mixing tee, and the eluent:reagent mixture entered a post-column reaction coil. Cholesterol content of the eluent mixture was spectrophotometrically detected at 500 nm, and data points were collected into a computer. The resulting profiles were decomposed into component peaks and analyzed for relative area using PeakFit (SPSS Science, Chicago, Ill.); absolute cholesterol values for total cholesterol and each component peak were determined by comparison with a control sample of known values. In some cases fractions were collected to determine distribution of radioactivity. The CLiP method allowed analysis of individual mouse samples, avoiding the use of pooled samples.

[7] = Antibody detection by indirect ELISA after 16 weeks of daily injection; format: in vivo, mouse; conditions: plasma at conclusion of 16-week injection period
Method: To determine whether daily injections of peptides elicited any immune response in mice, indirect ELISA titration (Engvall (1980) Meth. Enzymol. 70:419–439) was carried out with plasma taken from mice at the time of organ collection (following sixteen weeks of daily injection). Plates were coated with the injected peptides or MoAI (10 μg/ml). Plates were incubated overnight. After thorough washing with borate buffered saline (pH 8.2) containing 0.05% Tween 20, and blocking with buffer (0.1% gelatin and 0.1% BSA in borate buffer) for 1 h, 200 μl of the diluted mouse plasma (1:100 dilution) samples were serially diluted 1:1 with borate-buffered saline. Biotinylated goat antibody to mouse IgG (0.1 μg/ml) was then added to the wells and the plates were treated with SA-HRP (Streptavidin-horse radish peroxidase) for an hour and developed with ABTS and peroxide as substrate. The plates were incubated overnight at room temperature after every addition of antigen/antibody and washed thoroughly with borate buffered saline (pH 8.2) containing 0.05% Tween 20, and blocked with buffer (0.1% gelatin and 0.1% BSA in borate buffer) for 1 h before the next addition.

[8] = mouse, in vivo
Method: The 5F peptide, MoAI, and human apo A-I were labeled with ^125I by the method of Bilheimer et al. (1972) Biochim. Biophys. Acta 260: 212–221. Mice were placed on a modified Thomas-Hartroft atherogenic diet (#TD88051; Teklad, Madison, Wis.) for four weeks at which time daily intraperitoneal injections of peptide or protein dissolved in 200 μl phosphate-buffered saline (PBS) were begun. Animals injected with MoAI or human apo A-I received 50 μg per animal; those injected with 5F received 20 μg. Animals were not fasted for the kinetic studies and blood samples were taken under xylazine:ketamine anesthesia from the retro-orbital sinus at 15, 30, and 45 minutes, and 1, 1.5, 2, 3, 4, 6, 8, 12, and 24 hours following injection. Each animal provided three blood samples at different time points (all retro-orbital and alternating eyes), and at least three samples were collected (from different animals) at each time point. Samples were collected into heparinized capillary tubes, then placed in microcentrifuge tubes; the plasma was separated by centrifugation. Duplicate 10 μl aliquots of each sample were taken for radioactivity determination, using gamma counting (Cobra; Packard Instruments, Downers Grove, Ill.) for 10 minutes per sample. Total plasma volume was calculated as 4.2% body weight. Each sample was expressed as percent of injected CPM in total plasma. Free ^125I was determined by trichloroacetic acid (TCA) precipitation (1 ml of 10% TCA per 10 μl plasma sample). Fitting to the kinetic model was done using all data points, rather than averages at each time point (PKAnalyst, MicroMath Scientific Software, Salt Lake City, Utah).
Treatment groups were compared by two-tailed t-tests or one way analysis of variance (where the data were normally distributed), or by one way analysis of variance on ranks (SigmaStat; SPSS Science, Chicago, Ill.). Kinetics of peptide or protein turnover were analyzed by fitting to a first order one-compartment kinetic model assuming non-equal input and output rates (PKAnalyst; MicroMath Scientific Software, Salt Lake City, Utah).

[9] = Survival, toxicity, body and liver weights after 16 weeks of injection
Method: Mice were acquired at six weeks of age, and randomized into groups of 20, except that a negative control group of 10 received no treatments and was given standard rodent chow. At eight weeks of age, the treatment groups were placed on a modified Thomas-Hartroft atherogenic diet (#TD88051; Teklad, Madison, Wis.), and injections were begun. […] Animals were injected intraperitoneally daily for 16 weeks, including weekends and holidays.
At the end of the study (week 16), at the last bleeding, the heart and the liver were excised. […] The livers were removed and weighed.

[10] = after 16 weeks, atherogenic diet, daily i.p., mean ± SEM

Molecule: CC(=O)N[C@H](CC(=O)O)C(=O)N[C@H](Cc1c[nH]c2ccccc12)C(=O)N[C@H](CC(C)C)C(=O)N[C@H](CCCCN)C(=O)N[C@H](C)C(=O)N[C@H](Cc1ccccc1)C(=O)N[C@H](Cc1ccc(O)cc1)C(=O)N[C@H](CC(=O)O)C(=O)N[C@H](CCCCN)C(=O)N[C@@H](C(=O)N[C@H](C)C(=O)N[C@H](CCC(=O)O)C(=O)N[C@H](CCCCN)C(=O)N[C@H](CC(C)C)C(=O)N[C@H](CCCCN)C(=O)N[C@H](CCC(=O)O)C(=O)N[C@H](C)C(=O)N[C@H](Cc1ccccc1)C(N)=O)C(C)C [Peptide D-2F, Ac-D-W-L-K-A-F-Y-D-K-V-A-E-K-L-K-E-A-F-NH2] (Ac-[dD][dW][dL][dK][dA][dF][dY][dD][dK][dV][dA][dE][dK][dL][dK][dE][dA][dF]-NH2)
- monocyte chemotactic activity induced by LDL treated with peptide in vitro [1]: significantly different from LDL; also recorded: equally able to block LDL oxidation and LDL-induced monocyte chemotactic activity
- red cell lysis (hemolysis) after gavage [2]: resistant to hemolysis
- antibody formation against the peptide [3]: not seen evidence of antibody formation
- resistance of circulating mouse LDL to oxidation (monocyte chemotactic activity) [4]: resistant to oxidation
- monocyte chemotaxis induced by LDL from mice given 2F by gavage [4]: reduced monocyte chemotaxis

Molecule: CC(C)C[C@@H](NC(=O)[C@@H](Cc1c[nH]c2ccccc12)NC(=O)[C@H](N)CC(=O)O)C(=O)N[C@H](CCCCN)C(=O)N[C@H](C)C(=O)N[C@H](Cc1ccccc1)C(=O)N[C@H](Cc1ccc(O)cc1)C(=O)N[C@H](CC(=O)O)C(=O)N[C@H](CCCCN)C(=O)N[C@@H](C(=O)N[C@H](C)C(=O)N[C@H](CCC(=O)O)C(=O)N[C@H](CCCCN)C(=O)N[C@H](CC(C)C)C(=O)N[C@H](CCCCN)C(=O)N[C@H](CCC(=O)O)C(=O)N[C@H](C)C(=O)N[C@H](Cc1ccccc1)C(=O)N1CCC[C@@H]1C(=O)N[C@H](CC(=O)O)C(=O)N[C@H](Cc1c[nH]c2ccccc12)C(=O)N[C@H](CC(C)C)C(=O)N[C@H](CCCCN)C(=O)N[C@H](C)C(=O)N[C@H](Cc1ccccc1)C(=O)N[C@H](Cc1ccc(O)cc1)C(=O)N[C@H](CC(=O)O)C(=O)N[C@H](CCCCN)C(=O)N[C@@H](C(=O)N[C@H](C)C(=O)N[C@H](CCC(=O)O)C(=O)N[C@H](CCCCN)C(=O)N[C@H](CC(C)C)C(=O)N[C@H](CCCCN)C(=O)N[C@H](CCC(=O)O)C(=O)N[C@H](C)C(=O)N[C@H](Cc1ccccc1)C(=O)O)C(C)C)C(C)C [Peptide D-37pA] (H-[dD][dW][dL][dK][dA][dF][dY][dD][dK][dV][dA][dE][dK][dL][dK][dE][dA][dF][dP][dD][dW][dL][dK][dA][dF][dY][dD][dK][dV][dA][dE][dK][dL][dK][dE][dA][dF]-OH)
- monocyte chemotactic activity induced by LDL treated with peptide in vitro [1]: significantly different from LDL
- red cell lysis (hemolysis) after gavage [2]: resistant to hemolysis
- resistance of circulating mouse LDL to oxidation (monocyte chemotactic activity) [4]: resistant to oxidation

Molecule: Ac-DWLKAFYDKVAEKLKEAF-NH2 [Peptide L-2F, Ac-D-W-L-K-A-F-Y-D-K-V-A-E-K-L-K-E-A-F-NH2]
- monocyte chemotactic activity induced by LDL treated with peptide in vitro [1]: significantly different from LDL; also recorded: equally able to block LDL oxidation and LDL-induced monocyte chemotactic activity
- monocyte chemotaxis induced by LDL from mice given 2F by gavage [4]: readily induced monocyte chemotaxis

B1: Mouse apo A-I: mouse apo A-I isolated from the plasma of C57BL/6J mice (protein, UniProt Q00623 25-264, looked up)
Apolipoprotein A-I: DEPQSQWDKVKDFANVYVDAVKDSGRDYVSQFESSSLGQQLNLNLLENWDTLGSTVSQLQERLGPLTRDFWDNLEKETDWVRQEMNKDLEEVKQKVQPYLDEFQKKWKEDVELYRQKVAPLGAELQESARQKLQELQGRLSPVAEEFRDRMRTHVDSLRTQLAPHSEQMRESLAQRLAELKSNPTLNEYHTRAKTHLKTLGEKARPALEDLRHSLMPMLETLKTQVQSVIDKASETLTAQ
- mean lesion cross-sectional area compared with PBS-injected animals [5]: no difference in lesion area
- HDL as percent of total cholesterol [6]: (9.34 ± 1.19%*)
- IDL + LDL as percent of total cholesterol [6]: (42.44 ± 2.46%)
- VLDL as percent of total cholesterol [6]: (48.23 ± 2.75%)
- HDL cholesterol ([6]; mean ± SEM): 19.50 ± 3.07 mg/dL
- IDL + LDL cholesterol ([6]; mean ± SEM): 87.86 ± 8.34 mg/dL
- TC (total cholesterol) ([6]; mean ± SEM): 207.45 ± 16.94 mg/dL
- VLDL cholesterol ([6]; mean ± SEM): 100.08 ± 9.73 mg/dL
- antibodies against the injected material [7]: No antibodies were detected
- Max. % in plasma [8]: 13.5%
- Time (h) to max. CPM ([8]; ip): 1.74 h
- T½ ([8]; ip): 15.7 h
- toxicity ([9]; 16 weeks daily i.p. injection): No toxicity
- Body Weight [9, 10]: 21.16 ± 0.34 g
- Liver Weight [9, 10]: 1.72 ± 0.04 g
- Liver: Body (percentage) [9, 10]: 8.15 ± 0.23%
- mice died from unexplained causes ([9]; during the prolonged diet studies, groups of 20): Two

Reference: US7144862B2, “Orally administered peptides to ameliorate atherosclerosis” (The Regents of the University of California, priority 2000, dated 2006)
